# Reference: the RNAGym collection of RNA variant scans (doi:10.1073/pnas.2313332121)
# B1: TPR t1 (parent)
# chain: GACCAAUCUGCCCUCAGAGCUCGAGAACAUCUUCGGAUGCAGAGGAGGCAGGCUUCGGUGGCGCGAUAGCGCCAACGUCCUCAACCUCCAAUGCAUCCCACCACAUGAUGAUGCCUGAAGAGCCUUGGUUUUUUG
# Variants of: B1
# Experiment: polymerase ribozyme fitness, log enrichment relative to wild type (log ratio); higher = more active; in vitro selection for triplet polymerase activity
# Outline: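 Libraries of mutants in each subunit of a heterodimeric triplet polymerase ribozyme were generated by PCR and transcribed. In triplicate, each went through one in vitro selection round: annealing with biotinylated primer, partner subunit and triplets; frozen incubation at −7 °C; gel excision of extended constructs; streptavidin-bead capture; RT-PCR. Fitness, taken from Illumina sequencing of input and output libraries, is the logarithm of a genotype's enrichment over wild-type enrichment, averaged across replicates with inverse-variance weights. The logarithm is base 2, and genotypes needed ≥10 input reads and ≥1 read per output to be kept.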
row,Variant,polymerase ribozyme fitness (log ratio)
1,G47A U125G,-2.16
2,A46C G47A A50G U129A,-3.12
3,A46G C123U,0.893
4,A46U G110A,-2.4
5,G47U A118G U130G,-3.01
6,G48A C104U,-1.25
7,G47U G61U,-2.36
8,G47U G61C,-2.36
9,A46U G60C G93C G113C A121C,-4.8
10,G48A C56G C85G C94A A105G,-6.42
11,A46U G60C,-0.894
12,G47A G61A,-2.4
13,G47C C53U C70A C124A,-1.6
14,G47A C70A C101U,-1.81
15,A46C U96G C104U U131C,-1.75
16,G47A G48A C53A G127A,-3.92
17,G47A G51C C98A C102U C115U G127U,-7.84
18,A46U G63A C85G A121C,-1.37
19,G45U G77U C79U C114G,-4.37
20,A46G C56A A100C,-1.41
21,A46C U109C,-6.47
22,G47U U54C,-3.33
23,G45U C72G C89G,-3.39
24,G47U C53A C70U U126C,-2.43

row,Variant,polymerase ribozyme fitness (log ratio)
1,A46U C104A,-2.88
2,G47U C53G C62A,-2.11
3,G47U G60A G117A,-3.41
4,A46C C49U A111U U133G,-5.19
5,G47U C64U A121U,0.804
6,A46C C73A,-1.64
7,G47C C56A,-2.47
8,A46C G58C U59A C88G,-2.01
9,A46C C56G,-1.37
10,G45U C72G,-1.73
11,G47C A50C C72U C85G C88G C102U C123U,-7.42
12,A46C C104A A118U C123G,-1.15
13,A46U C79U C82U G110U G135A,-3.2
14,G48A C72A U116C,-1.09
15,A46C C56A C85G,-5.4
16,G45U C56A U59G C101G G120A G128A G135A,-3.75
17,G47C C102U U112C,-1.55
18,G45U U59G A83G C115U,-5.27
19,G48A C53U C80U C124U,0.0289
20,A46U G57U C94A,-2.21
21,G47U C53A U106C,-0.879
22,G47U U96C A118G,-1.69
23,A46U A83G G110A,-3.02
24,G47U G120C,-0.748

row,Variant,polymerase ribozyme fitness (log ratio)
1,G47U C101A C104U,-2.34
2,A46G G47U A119G,-0.516
3,G47U G61A C85A,-1.18
4,G48A C72A C115A,-0.421
5,G47C G52C G120U C123A,-1.92
6,G45U G63U A84G,-3.63
7,G45U C73U C98U A111G U125A,-6.59
8,G47C G61A,-0.75
9,A46U C76A A84C A100C C124A,-4.99
10,G48A G61A,-0.0923
11,G45U U78C,-1.46
12,G47U G120C U131G,0.253
13,G48A C86U,-0.5
14,G48A C86A,-0.909
15,G48A A105C G120A A121C G122U U129A,-3.55
16,G47U U125G,-2.32
17,G48A C56U C86A C94A A111C,-2.79
18,A46C C56A G69U,-1.31
19,A46U C49G C56U C76U U87A,-1.97
20,G47U A90G,-0.297
21,G47A G52A G61C G120A,-4.97
22,G45U C70U C85U C89A C104U,-5.61
23,G45U G51U A118G G120U,-7.09
24,G47U C64U,-1.51

row,Variant,polymerase ribozyme fitness (log ratio)
1,G45U G122A,-1.14
2,A46C G71C,-1.14
3,G48A C62A,-2.76
4,G47U C89U,-3.28
5,A46U C56G G61U A105U C123U,-5.93
6,A46U C62U G113A,-2.45
7,G48A C82G,-0.457
8,G48A C82A,-1.42
9,A46C C76A C86U C104U,-0.577
10,G47A U59G A91U G113A,-2.02
11,A46U C97A C99G G117C,-7.9
12,A46U G113U,-3.73
13,A46U C89U,-2.66
14,G48A G63A,-1.14
15,G47A C62U U112C C114U A118G,-3.76
16,G45U G61U G117U C123A,-2.94
17,G47C G69U C72U,-1.29
18,A46U C70U C79G U130C,-4.73
19,G48A C94G,-1.71
20,G47U C72U,-1.71
21,G45U C72U U78G C101A G122A,-2.81
22,G45U G48A U132C,-1.5
23,A46G G113A,-1.46
24,A46U G48A G52A C62A C88U C124U,-7.18

row,Variant,polymerase ribozyme fitness (log ratio)
1,G47A G58U G110U G120A,-3.22
2,G47U C104A U129A,-5.96
3,G48A C73A U92A C115U,-5.26
4,G45U G63C,-2.21
5,G45U G63U,-2.05
6,G47A G51U C72U U78C,-5
7,A46C G58A C62U,-1.93
8,A46U U130G,-1.6
9,A46U G120U,-0.451
10,G47U G52A C73A C86A,-0.962
11,G47U A105C U106A,-1.48
12,G47C A84C,-0.862
13,G48A A50U U78A A119G G120C,0.486
14,G47U G58A A83C,-2.55
15,G48A C85G C89A U96C,-2.26
16,A46C G69U,-0.0247
17,G47C G48A C72U A91C C97U,-3.42
18,A46U G122A,-2.16
19,G47C C70U G93A C124A G127U G135U,-3.66
20,G48A C88G,-0.075
21,G47U G135C,-1.39
22,G47C G117U,-4.33
23,G45U C98A,-6.01
24,G48A G61U U78C,-0.213

row,Variant,polymerase ribozyme fitness (log ratio)
1,G48A A75G G120A,0.0402
2,G48A C80U U96A C114U,-3.73
3,G47C G71A,-3.14
4,G47U A95U,-1.91
5,G47U C56U C72U U116C,-3.11
6,G45U G47A G63U C82G G93U G117C A119G,-7.49
7,A46U G120U G135C,-0.818
8,G47U A91C G113A U130A,-3.79
9,G47U A50G,-1.99
10,A46U C62G,-3.18
11,A46U C62U,-1.12
12,G47A G69C C101U G122A,-3.07
13,A46U C82A,-1.42
14,A46U G127C,-2.68
15,A46U G127U,-2.62
16,G47U C70U C88U,-3.39
17,A46U G63C C76A C85A C115G,-5.34
18,G47C C62G G120C G128A,-5.53
19,G47C C53U,-0.348
20,A46U G107C,-6.11
21,A46U G52U A66G C104U G110A,-5.89
22,G47U G51U C124U,-3.46
23,A46U C72U U96A G120A,-1.15
24,A46U C62G U112G,-2.14

row,Variant,polymerase ribozyme fitness (log ratio)
1,G47A A50U G57U C82A,-2.37
2,A46U G128U,-3.23
3,G47A U54C C97G,-5.9
4,G47C C62G,-4.1
5,G47U G71A,-1.21
6,A46U A111G,-1.48
7,G47A C82G U106A,-1.42
8,G45U C62U G107U U116C,-5.58
9,G48A C124U,1.15
10,G45U U96A U132A,-2.11
11,G47U A68G C104U,-4.55
12,G48A C85G,-2.75
13,G48A G120C,0.921
14,G47U G58U C88U,-2.22
15,G48A C56U C70A G93A,-5.28
16,G47U A50U U59C C73A U78A,-2.43
17,G47A G93U G113U C123U G135U,-6.04
18,A46U G69U A91U A103G U106A C114U U131G,-5.56
19,A46G A95G,-0.108
20,G45U G61A C62U C79A,-2.55
21,G47A G69U C98U C99U,-2.9
22,A46G C70G,-4.8
23,A46G C70A,-1.26
